Reference: paper PMC6917645

Target: Viperin-Flag (UniProt Q8WXG1)
Sequence of UniProt Q8WXG1 (Q8WXG1 whole entry): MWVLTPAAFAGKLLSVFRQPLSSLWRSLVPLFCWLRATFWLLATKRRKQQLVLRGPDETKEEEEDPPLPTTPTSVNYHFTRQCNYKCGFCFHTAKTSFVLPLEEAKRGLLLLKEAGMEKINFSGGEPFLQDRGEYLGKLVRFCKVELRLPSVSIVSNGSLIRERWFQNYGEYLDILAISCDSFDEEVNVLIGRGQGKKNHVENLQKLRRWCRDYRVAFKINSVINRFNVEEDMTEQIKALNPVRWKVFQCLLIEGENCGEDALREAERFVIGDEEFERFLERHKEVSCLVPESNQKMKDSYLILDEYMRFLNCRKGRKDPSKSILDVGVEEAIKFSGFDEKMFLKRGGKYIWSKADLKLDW

gD-EYFP (from UniProt Q69091 26-394) (natural protein)
IRF7/6D-induced IFN-β promoter luciferase activity in HEK293T; gD-EYFP and Viperin-Flag together against gD or viperin alone: 2 fold
